Legend:
Experiment in all cases: ProtoArray, G9a array SNR minus GST array SNR
[1] = target: CALN1, G9a-methylated (human) (UniProt Q9BXU9)
[2] = target: CA13, G9a-methylated (human) (UniProt Q8N1Q1)
[3] = target: SAR1B, G9a-methylated (human) (UniProt Q9Y6B6)
[4] = target: SH3YL1 (hit 65), G9a-methylated (human) (UniProt Q96HL8)
[5] = target: RPL14, G9a-methylated (human) (UniProt P50914)
[6] = target: KRR1, G9a-methylated (human) (UniProt Q13601)
[7] = target: BHMT, G9a-methylated (human) (UniProt Q93088)
[8] = target: C10orf58, G9a-methylated (human) (UniProt Q9BRX8)
[9] = target: GPX1, G9a-methylated (human) (UniProt P07203)
Chain of GPX1, G9a-methylated (human) (P07203 whole entry): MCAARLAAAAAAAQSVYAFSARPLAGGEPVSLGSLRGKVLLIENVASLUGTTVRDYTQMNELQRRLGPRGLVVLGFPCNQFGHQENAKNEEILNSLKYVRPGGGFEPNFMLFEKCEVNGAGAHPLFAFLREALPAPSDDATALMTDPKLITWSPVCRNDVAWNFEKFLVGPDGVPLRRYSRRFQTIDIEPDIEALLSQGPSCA

[10] = target: SERPINB2, G9a-methylated (human) (UniProt P05120)
[11] = target: GYPC, G9a-methylated (human) (UniProt P04921)
[12] = target: HIC2, G9a-methylated (human) (UniProt Q96JB3)
[13] = target: SMAP1, G9a-methylated (human) (UniProt Q8IYB5)
[14] = target: PTCD2, G9a-methylated (human) (UniProt Q8WV60)
[15] = target: SH3YL1 (clone MGC:12275), G9a-methylated (human) (UniProt Q96HL8)
Chain of SH3YL1 (clone MGC:12275), G9a-methylated (human) (Q96HL8 whole entry): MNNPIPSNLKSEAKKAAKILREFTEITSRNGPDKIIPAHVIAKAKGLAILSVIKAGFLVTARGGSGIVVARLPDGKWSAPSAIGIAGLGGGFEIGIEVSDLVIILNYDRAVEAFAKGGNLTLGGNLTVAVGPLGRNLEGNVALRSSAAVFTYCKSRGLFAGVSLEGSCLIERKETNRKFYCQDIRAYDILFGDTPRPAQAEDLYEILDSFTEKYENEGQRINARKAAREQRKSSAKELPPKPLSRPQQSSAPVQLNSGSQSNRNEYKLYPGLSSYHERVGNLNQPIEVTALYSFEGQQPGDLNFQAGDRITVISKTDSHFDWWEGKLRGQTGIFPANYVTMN

[16] = target: FTH1 (hit 104), G9a-methylated (human) (UniProt P02794)
Chain of FTH1 (hit 104), G9a-methylated (human) (P02794 whole entry): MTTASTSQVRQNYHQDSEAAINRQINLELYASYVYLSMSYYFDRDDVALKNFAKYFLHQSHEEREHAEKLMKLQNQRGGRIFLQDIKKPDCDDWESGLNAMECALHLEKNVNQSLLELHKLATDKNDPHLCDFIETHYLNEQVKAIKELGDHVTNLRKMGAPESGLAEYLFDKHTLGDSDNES

[17] = target: C12orf23, G9a-methylated (human) (UniProt Q8WUH6)
[18] = target: RTN1, G9a-methylated (human) (UniProt Q16799)
Chain of RTN1, G9a-methylated (human) (Q16799 other isoform, or with tags, fused parts or gaps limits assumed): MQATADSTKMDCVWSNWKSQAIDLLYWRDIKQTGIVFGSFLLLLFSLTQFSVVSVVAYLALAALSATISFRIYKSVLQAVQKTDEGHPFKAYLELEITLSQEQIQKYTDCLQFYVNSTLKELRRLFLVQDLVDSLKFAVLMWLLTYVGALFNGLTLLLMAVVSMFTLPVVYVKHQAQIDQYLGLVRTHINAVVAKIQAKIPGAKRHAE

[19] = target: VPS29, G9a-methylated (human) (UniProt Q9UBQ0)
[20] = target: CAB39L, G9a-methylated (human) (UniProt Q9H9S4)
[21] = target: CTSZ, G9a-methylated (human) (UniProt Q9UBR2)
[22] = target: ZRANB1, G9a-methylated (human) (UniProt Q9UGI0)
[23] = target: PSMA8, G9a-methylated (human) (UniProt Q8TAA3)
Chain of PSMA8, G9a-methylated (human) (Q8TAA3 whole entry): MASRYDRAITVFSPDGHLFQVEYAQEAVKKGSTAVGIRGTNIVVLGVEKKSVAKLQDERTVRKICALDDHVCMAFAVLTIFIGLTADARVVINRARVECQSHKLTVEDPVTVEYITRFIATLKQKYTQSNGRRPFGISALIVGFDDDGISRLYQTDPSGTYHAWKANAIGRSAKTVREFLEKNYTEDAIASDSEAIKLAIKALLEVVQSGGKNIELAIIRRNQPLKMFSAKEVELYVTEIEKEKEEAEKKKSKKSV

[24] = target: TEAD4, G9a-methylated (human) (UniProt Q15561)
Chain of TEAD4, G9a-methylated (human) (Q15561 130-434 limits assumed): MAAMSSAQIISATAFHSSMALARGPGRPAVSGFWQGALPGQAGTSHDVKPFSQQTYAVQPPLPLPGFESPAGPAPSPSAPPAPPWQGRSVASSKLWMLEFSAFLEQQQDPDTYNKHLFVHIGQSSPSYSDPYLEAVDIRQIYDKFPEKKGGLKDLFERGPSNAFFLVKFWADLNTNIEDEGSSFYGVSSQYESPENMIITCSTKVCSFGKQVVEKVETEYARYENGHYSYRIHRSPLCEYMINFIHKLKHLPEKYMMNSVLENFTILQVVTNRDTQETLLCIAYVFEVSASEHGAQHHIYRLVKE

[25] = target: AP1S1, G9a-methylated (human) (UniProt P61966)
Chain of AP1S1, G9a-methylated (human) (P61966 whole entry): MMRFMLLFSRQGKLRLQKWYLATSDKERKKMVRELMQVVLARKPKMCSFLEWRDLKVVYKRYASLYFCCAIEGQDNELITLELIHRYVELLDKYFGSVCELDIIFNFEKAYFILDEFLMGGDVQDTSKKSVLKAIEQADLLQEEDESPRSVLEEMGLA

[26] = target: UBE2S, G9a-methylated (human) (UniProt Q16763)
Chain of UBE2S, G9a-methylated (human) (Q16763 whole entry): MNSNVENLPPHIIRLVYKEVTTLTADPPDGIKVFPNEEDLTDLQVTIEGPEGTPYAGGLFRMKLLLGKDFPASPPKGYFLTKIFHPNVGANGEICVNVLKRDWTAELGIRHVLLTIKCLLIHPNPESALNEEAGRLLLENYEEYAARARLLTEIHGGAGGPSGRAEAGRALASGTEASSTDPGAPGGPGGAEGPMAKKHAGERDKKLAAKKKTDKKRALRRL

[27] = target: DIRAS1, G9a-methylated (human) (UniProt O95057)
Chain of DIRAS1, G9a-methylated (human) (O95057 whole entry): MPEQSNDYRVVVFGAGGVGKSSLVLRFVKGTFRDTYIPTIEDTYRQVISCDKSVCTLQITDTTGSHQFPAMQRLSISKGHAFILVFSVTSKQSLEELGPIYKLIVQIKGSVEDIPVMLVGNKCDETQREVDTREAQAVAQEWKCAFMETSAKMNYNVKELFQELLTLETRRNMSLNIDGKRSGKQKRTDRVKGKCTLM

[28] = target: C1QTNF6, G9a-methylated (human) (UniProt Q9BXI9)
Chain of C1QTNF6, G9a-methylated (human) (Q9BXI9 47-278 limits assumed): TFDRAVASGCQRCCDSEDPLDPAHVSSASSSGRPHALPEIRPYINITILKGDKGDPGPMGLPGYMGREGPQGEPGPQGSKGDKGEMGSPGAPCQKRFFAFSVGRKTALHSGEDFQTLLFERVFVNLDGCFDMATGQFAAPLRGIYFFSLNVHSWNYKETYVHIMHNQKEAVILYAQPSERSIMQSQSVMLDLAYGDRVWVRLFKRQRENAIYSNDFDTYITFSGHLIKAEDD

[29] = target: MAGEH1, G9a-methylated (human) (UniProt Q9H213)
Chain of MAGEH1, G9a-methylated (human) (Q9H213 whole entry): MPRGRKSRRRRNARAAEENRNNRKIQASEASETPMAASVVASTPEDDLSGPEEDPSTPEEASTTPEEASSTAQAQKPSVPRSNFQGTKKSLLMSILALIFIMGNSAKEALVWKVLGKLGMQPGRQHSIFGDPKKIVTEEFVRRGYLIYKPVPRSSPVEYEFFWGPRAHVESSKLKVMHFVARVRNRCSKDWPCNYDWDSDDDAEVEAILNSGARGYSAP

[30] = target: GFOD1, G9a-methylated (human) (UniProt Q9NXC2)
[31] = target: C10orf83, G9a-methylated (human) (UniProt Q8NDC4)
Chain of C10orf83, G9a-methylated (human) (Q8NDC4 whole entry): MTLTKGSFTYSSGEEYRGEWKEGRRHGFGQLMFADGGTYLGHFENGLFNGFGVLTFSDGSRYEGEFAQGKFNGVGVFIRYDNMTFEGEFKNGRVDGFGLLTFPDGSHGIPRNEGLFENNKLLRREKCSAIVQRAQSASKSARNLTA

[32] = target: C11orf73, G9a-methylated (human) (UniProt Q53FT3)
Chain of C11orf73, G9a-methylated (human) (Q53FT3 whole entry): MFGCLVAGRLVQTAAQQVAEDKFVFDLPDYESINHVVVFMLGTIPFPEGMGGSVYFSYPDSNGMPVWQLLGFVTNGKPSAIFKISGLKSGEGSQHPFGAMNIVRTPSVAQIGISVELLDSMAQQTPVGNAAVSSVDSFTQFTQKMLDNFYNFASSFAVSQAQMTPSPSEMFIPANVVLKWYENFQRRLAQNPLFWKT

[33] = target: PPARG, G9a-methylated (human) (UniProt P37231)
[34] = target: BLCAP, G9a-methylated (human) (UniProt P62952)
Chain of BLCAP, G9a-methylated (human) (P62952 whole entry): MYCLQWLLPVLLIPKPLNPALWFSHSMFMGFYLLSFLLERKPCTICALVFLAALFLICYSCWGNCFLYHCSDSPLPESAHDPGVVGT

[35] = target: WDR45, G9a-methylated (human) (UniProt Q9Y484)
[36] = target: LPAL2, G9a-methylated (human) (UniProt Q16609)
[37] = target: GPR108, G9a-methylated (human) (UniProt Q9NPR9)
Chain of GPR108, G9a-methylated (human) (Q9NPR9 33-543 limits assumed): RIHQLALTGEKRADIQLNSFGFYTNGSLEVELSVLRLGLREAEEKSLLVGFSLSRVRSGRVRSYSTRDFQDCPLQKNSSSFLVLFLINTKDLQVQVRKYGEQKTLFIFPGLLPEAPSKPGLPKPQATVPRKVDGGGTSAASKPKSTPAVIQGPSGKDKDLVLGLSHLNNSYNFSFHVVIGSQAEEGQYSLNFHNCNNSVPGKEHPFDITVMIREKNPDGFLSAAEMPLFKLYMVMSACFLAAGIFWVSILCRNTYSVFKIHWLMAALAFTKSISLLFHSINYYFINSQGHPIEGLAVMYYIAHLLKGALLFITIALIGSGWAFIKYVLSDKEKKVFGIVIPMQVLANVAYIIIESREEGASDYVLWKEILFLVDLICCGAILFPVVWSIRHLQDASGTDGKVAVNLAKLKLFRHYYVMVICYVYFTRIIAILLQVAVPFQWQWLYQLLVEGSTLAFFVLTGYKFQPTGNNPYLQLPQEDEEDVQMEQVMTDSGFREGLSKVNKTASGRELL

[38] = target: GNPTAB, G9a-methylated (human) (UniProt Q3T906)
[39] = target: CUTC, G9a-methylated (human) (UniProt Q9NTM9)
[40] = target: FTH1 (hit 109), G9a-methylated (human) (UniProt P02794)
Chain of FTH1 (hit 109), G9a-methylated (human) (P02794 whole entry): as the sequence (P02794 whole entry) above

Chain of CA13, G9a-methylated (human) (Q8N1Q1 whole entry): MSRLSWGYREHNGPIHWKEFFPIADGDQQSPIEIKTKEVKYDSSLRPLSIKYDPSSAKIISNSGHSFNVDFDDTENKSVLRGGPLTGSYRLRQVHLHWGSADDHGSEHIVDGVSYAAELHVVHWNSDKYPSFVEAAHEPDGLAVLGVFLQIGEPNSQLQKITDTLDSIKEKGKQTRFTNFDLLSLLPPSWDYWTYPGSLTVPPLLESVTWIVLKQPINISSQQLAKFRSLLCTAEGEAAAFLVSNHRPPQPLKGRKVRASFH
Chain of SH3YL1 (hit 65), G9a-methylated (human) (Q96HL8 whole entry): as the sequence (Q96HL8 whole entry) above
Chain of KRR1, G9a-methylated (human) (Q13601 whole entry): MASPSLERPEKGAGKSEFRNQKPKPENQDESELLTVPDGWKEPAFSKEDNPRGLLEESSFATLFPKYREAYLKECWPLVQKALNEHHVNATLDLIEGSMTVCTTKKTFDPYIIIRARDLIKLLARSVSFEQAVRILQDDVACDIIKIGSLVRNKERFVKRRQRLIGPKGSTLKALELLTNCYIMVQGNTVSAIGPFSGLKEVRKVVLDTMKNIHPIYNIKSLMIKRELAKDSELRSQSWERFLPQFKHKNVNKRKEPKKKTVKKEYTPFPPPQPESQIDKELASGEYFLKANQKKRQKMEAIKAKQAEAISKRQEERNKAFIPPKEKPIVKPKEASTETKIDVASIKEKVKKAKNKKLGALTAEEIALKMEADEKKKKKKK

Which G9a-GST [1] does the source give for 3× Flag-3×MBT (designed binder) here?
The G9a-GST was 18.6.

What about the G9a-GST [2] of the same substance?
Its G9a-GST is 12.2.

And the G9a-GST [3]?
The G9a-GST was 19.3.

What about the G9a-GST [4] of the same substance?
Its G9a-GST is 16.2.

And the G9a-GST [5]?
The G9a-GST was 17.7.

What about the G9a-GST [6] of the same substance?
The G9a-GST was 29.3.

And the G9a-GST [7]?
Its G9a-GST is 15.2.

And the G9a-GST [8]?
Its G9a-GST is 16.

What about the G9a-GST [9] of the same substance?
Its G9a-GST is 14.5.

What about the G9a-GST [10] of the same substance?
Its G9a-GST is 17.3.

What about the G9a-GST [11] of the same substance?
The G9a-GST was 13.3.

And the G9a-GST [12]?
The G9a-GST was 16.1.

And the G9a-GST [13]?
The G9a-GST was 20.2.

And the G9a-GST [14]?
Its G9a-GST is 18.7.

What about the G9a-GST [15] of the same substance?
The G9a-GST was 12.7.

And the G9a-GST [16]?
The G9a-GST was 31.2.

What about the G9a-GST [17] of the same substance?
The G9a-GST was 12.2.

What about the G9a-GST [18] of the same substance?
The G9a-GST was 13.8.

And the G9a-GST [19]?
Its G9a-GST is 15.5.

What about the G9a-GST [20] of the same substance?
The G9a-GST was 14.5.

What about the G9a-GST [21] of the same substance?
Its G9a-GST is 12.3.

What about the G9a-GST [22] of the same substance?
The G9a-GST was 13.6.

And the G9a-GST [23]?
The G9a-GST was 13.9.

And the G9a-GST [24]?
Its G9a-GST is 16.1.

What about the G9a-GST [25] of the same substance?
The G9a-GST was 15.4.

What about the G9a-GST [26] of the same substance?
The G9a-GST was 24.7.

And the G9a-GST [27]?
Its G9a-GST is 28.2.

What about the G9a-GST [28] of the same substance?
The G9a-GST was 16.8.

And the G9a-GST [29]?
Its G9a-GST is 42.9.

And the G9a-GST [30]?
The G9a-GST was 16.

And the G9a-GST [31]?
Its G9a-GST is 14.6.

What about the G9a-GST [32] of the same substance?
Its G9a-GST is 14.9.

And the G9a-GST [33]?
The G9a-GST was 13.3.

What about the G9a-GST [34] of the same substance?
The G9a-GST was 25.5.

What about the G9a-GST [35] of the same substance?
The G9a-GST was 15.2.

What about the G9a-GST [36] of the same substance?
The G9a-GST was 33.

What about the G9a-GST [37] of the same substance?
Its G9a-GST is 20.

And the G9a-GST [38]?
The G9a-GST was 15.3.

And the G9a-GST [39]?
Its G9a-GST is 12.9.

And the G9a-GST [40]?
Its G9a-GST is 37.9.
